Experimental data taken from patent US20200347144A1 (SHANGHAI HYAMAB BIOTECH, published 2020).
Blank lines part the entries; values can stand above or below the binder they belong to.

Legend:
[1] = biological target: T1, hFc-tagged human 4-1BB extracellular domain protein (4-1BB-hFc) (human, UniProt Q07011 24-186, limits assumed); test: ELISA, coated human 4-1BB-hFc; Ab 0.016 ug/ml
T1 construct: also called immunogen A; 4-1BB^ECD-hFc; not shown: human IgG Fc fragment (hFc) of the pCpC vector
Description: (§1) The purified immunogen A (4-1BB-hFc), monkey 4-1BB-his, and mouse 4-1BB-his obtained in Example 1 [for the preparation method, see step 1 of Example 1, preparation of immunogen A], of which the extracellular domain of monkey-derived 4-1BB protein (purchased from ACRO biosystems), the extracellular domain of mouse 4-1BB protein (purchased from sino biological) or other immune detection point proteins respectively were diluted with PBS to a final concentration of 1.0 μg/mL, then added with […] per well to 96-well ELISA plate. It was sealed with plastic film and incubated at 4° C. overnight. The next day, the plate was washed twice with the plate-washing solution [PBS containing 0.01% (v/v) Tween20] and blocking solution [PBS containing 0.01% (v/v) Tween 20 and 1% (v/v) BSA] was added and blocked at room temperature for 2 hours. The blocking solution was discarded and 100 μl of the purified 4-1BB antibody obtained in Example 2 was added per well. After incubated at 37° C. for 2 hours, the plate was washed 3 times with a plate-washing solution [PBS containing 0.01% (v/v) Tween20]. A secondary antibody (purchased from Sigma) labeled with HRP (horseradish peroxidase) was added, and after incubated at 37° C. for 2 hours, the plate was washed 3 times with a plate-washing solution [PBS containing 0.01% (v/v) Tween20]. 100 μl of TMB substrate was added per well. After incubated for 30 minutes at room temperature, 100 μl of stop buffer (1.0N HCl) was added per well. The A450 nm values were read using an ELISA plate reader (SpectraMax 384plus, Molecular Device).

[2] = biological target: T2, human 4-1BB, full length, on transfected cells (human, UniProt Q07011 24-255); test: FACS, CHOK1-h4-1BB cells; Ab 10 ug/ml
T2 construct: whole, on cells; also called CHOK1-h4-1BB
Description: (§2) The pIRES plasmid carrying the full-length gene of monkey-derived […] (the preparation method is the same as the preparation method of the pCpC vector carrying the human-derived IgG Fc fragment (hFc) in “Preparation of immunogen A” of the step (1) in Example 1, in which the database accession number of the amino acid sequence of the extracellular region of monkey 4-1BB protein (Phe19-Thr239) is G7PSE7) was transfected into CHOK1 cell line to obtain CHOK1 stable transfected cell line containing monkey 4-1BB (herein referred to as CHOK1-c4-1BB stable cell line). The CHOK1-h4-1BB stable cell line and the CHOK1-c4-1BB stable cell line were expanded and cultivated to 90% confluence in T-75 cell culture flasks. The medium was exhausted, and washed twice with HBSS buffer (Hanks Balanced Salt Solution, purchased from Invitrogen), and then the cells were treated and collected with enzyme-free cell dissociation solution (Versene solution, purchased from Life Technology). The cells were washed twice with HBSS buffer, and after cell counting, the cells were diluted with HBSS buffer to 2×10⁶ cells per ml, and 1% goat serum blocking solution was added, the percentage being the mass percentage. It was incubated on ice for 30 minutes, and then washed twice with HBSS buffer by centrifugation. The collected cells were suspended in FACS buffer (HBSS containing 1% BSA, the percentage was the mass percentage) to 2×10⁶ cells/mL, and 100 μl per well was added to a 96-well FACS reaction plate. The purified 4-1BB antibody test sample obtained in Example 2 was added, 100 microliters per well and incubated on ice for 2 hours. […] It was washed three times with FACS buffer by centrifugation, and 100 μl of fixative [4% (v/v) paraformaldehyde] per well was added to suspend cells, and washed twice with FACS buffer after 10 minutes by centrifugation. The cells were suspended with 100 microliters of FACS buffer, and the results were detected and analyzed with FACS (FACS Calibur, purchased from BD).

[3] = biological target: T1, hFc-tagged human 4-1BB extracellular …; test: ELISA, coated human 4-1BB-hFc; Ab 2 ug/ml
Description: as §1

[4] = biological target: T1, hFc-tagged human 4-1BB extracellular …; test: ELISA, coated human 4-1BB-hFc; Ab 0.08 ug/ml
Description: as §1

[5] = biological target: T1, hFc-tagged human 4-1BB extracellular …; test: ELISA, coated human 4-1BB-hFc; Ab 10 ug/ml
Description: as §1

[6] = biological target: T3, monkey 4-1BB on CHOK1 cells (monkey); test: FACS, CHOK1-c4-1BB cells; Ab 0.08 ug/ml
T3 construct: whole, on cells; also called CHOK1-c4-1BB
Description: as §2

[7] = biological target: T2, human 4-1BB, full length, on …; test: FACS, CHOK1-h4-1BB cells; Ab 0.00013 ug/ml
Description: as §2

[8] = biological target: T3, monkey 4-1BB on CHOK1 cells; test: FACS, CHOK1-c4-1BB cells; Ab 0.4 ug/ml
Description: as §2

[9] = biological target: T3, monkey 4-1BB on CHOK1 cells; test: FACS, CHOK1-c4-1BB cells; Ab 10 ug/ml
Description: as §2

[10] = biological target: T2, human 4-1BB, full length, on …; test: FACS, CHOK1-h4-1BB cells; Ab 0.0032 ug/ml
Description: as §2

[11] = biological target: T3, monkey 4-1BB on CHOK1 cells; test: FACS, CHOK1-c4-1BB cells; Ab 0.00013 ug/ml
Description: as §2

[12] = biological target: T1, hFc-tagged human 4-1BB extracellular …; test: ELISA, coated human 4-1BB-hFc; Ab 0.4 ug/ml
Description: as §1

[13] = biological target: T2, human 4-1BB, full length, on …; test: FACS, CHOK1-h4-1BB cells; Ab 0.016 ug/ml
Description: as §2

[14] = biological target: T1, hFc-tagged human 4-1BB extracellular …; test: ELISA: human 4-1BB-hFc coated at 1.0 µg/mL, antibody titrated, HRP secondary antibody, OD450
Description: as §1

T2 sequence (Q07011 24-255): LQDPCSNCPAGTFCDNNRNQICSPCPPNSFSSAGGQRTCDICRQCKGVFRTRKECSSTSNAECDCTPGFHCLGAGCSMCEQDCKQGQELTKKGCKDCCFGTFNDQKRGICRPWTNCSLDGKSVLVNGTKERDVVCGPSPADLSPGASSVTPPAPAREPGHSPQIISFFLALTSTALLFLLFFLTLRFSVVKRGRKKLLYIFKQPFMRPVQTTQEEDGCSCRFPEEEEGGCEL

B1: 52F4G2 (antibody, V domains shown)
VH: QVQLQESGPGLVKPSETLSLTCAVSGYSISSGYYWGWIRQPPGKGLEWIGSIFHSGSSYYNPSLKSRVTISVDTSKNQFSLKLRSVTAADTAVYYCARESSGWNCFDYWGQGTLVTVSS
VL: DIQMTQSPSTLSASVGDRVTITCRASQTISTWLAWYQQKPGKAPKLLIYKASNLESGVPSRFSGSGSGTEFTLTISSLQPDDFATYYCQQYNSYSITFGQGTRLEIK
OD450 nm [1]: 2.51 OD450 nm | average fluorescence intensity [2]: 615 MFI | OD450 nm [3]: 3.1 OD450 nm | OD450 nm [4]: 3.08 OD450 nm | OD450 nm [5]: 3.06 OD450 nm | average fluorescence intensity [6]: 130 MFI | average fluorescence intensity [7]: 4.8 MFI | average fluorescence intensity [8]: 469 MFI | average fluorescence intensity [9]: 736 MFI | average fluorescence intensity [10]: 38.3 MFI | average fluorescence intensity [11]: 3.2 MFI | OD450 nm [12]: 3.09 OD450 nm | average fluorescence intensity [13]: 141 MFI | EC50 (read off the curve) [14]: ~0.007 µg/mL

B4: 170D7F2 (antibody, V domains shown)
VH: QVQLVQSGAEVKKPGASVKVSCKASGYTFTSYDINWVRQATGQGLEWMGWMNPNSGNTGYAQKFQGRVTMTRNTSISTAYMELSSLRSEDTAVYYCARETGPFDYWGQGTLVTVSS
VL: DIQMTQSPSSLSASVGDRVTITCRASQRINNYLNWYQQKPGKAPKLLIYGASSLQSGVPSRFSGSGSGTDFTLTISSLQPEDFATYYCQQSYSTPFTFGPGTKVDIK
OD450 nm [1]: 1.64 OD450 nm | average fluorescence intensity [2]: 735 MFI | OD450 nm [3]: 3.49 OD450 nm | OD450 nm [4]: 3.24 OD450 nm | OD450 nm [5]: 3.44 OD450 nm | average fluorescence intensity [6]: 96.3 MFI | average fluorescence intensity [7]: 2.6 MFI | average fluorescence intensity [8]: 304 MFI | average fluorescence intensity [9]: 700 MFI | average fluorescence intensity [10]: 14 MFI | average fluorescence intensity [11]: 2.6 MFI | OD450 nm [12]: 3.5 OD450 nm | average fluorescence intensity [13]: 48.8 MFI | EC50 (read off the curve) [14]: ~0.02 µg/mL

B6: 289B6G6 (antibody, V domains shown)
VH: QVQLQESGPGLVRPSETLSLTCAVSGYSISSGYYWGWIRQPPGKGLEWIGSIFHSGNTYYNPSLKSRVIVSGDTSKNQFSLKLSSVTAADTAVYYCTRESSGFNVFDIWGQGTMVTVSS
VL: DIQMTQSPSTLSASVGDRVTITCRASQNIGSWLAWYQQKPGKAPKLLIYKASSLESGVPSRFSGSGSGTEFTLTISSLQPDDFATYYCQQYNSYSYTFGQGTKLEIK
OD450 nm [1]: 1.47 OD450 nm | average fluorescence intensity [2]: 2280 MFI | OD450 nm [3]: 2.77 OD450 nm | OD450 nm [4]: 2.73 OD450 nm | OD450 nm [5]: 2.8 OD450 nm | average fluorescence intensity [6]: 179 MFI | average fluorescence intensity [7]: 4 MFI | average fluorescence intensity [8]: 466 MFI | average fluorescence intensity [9]: 601 MFI | average fluorescence intensity [10]: 26.7 MFI | average fluorescence intensity [11]: 3 MFI | OD450 nm [12]: 2.79 OD450 nm | average fluorescence intensity [13]: 101 MFI | EC50 (read off the curve) [14]: ~0.02 µg/mL

B7: 113F6C6 (antibody, V domains shown)
VH: QVQLVESGGGVVQPGRSLRLSCAASGLTFSSYGMHWVRQAPGKGLEWVAVIWYDGSNKYYADSVKGRFTISRDNSKNTLYLQMNSLRAEDTAVYYCAREEVLWFGELSYNYYYGMDVWGQGTTVTVSS
VL: DIQMTQSPSSLSASVGDRVTITCRASQGISNYLAWYQQKPGKVPKLLIYAASTLQSGVPSRFSGSGSGTDFTLTISSLQPEDVATYYCQKYNSVPLTFGGGTKVEIK
notes: also called 4-1BB fully human antibody 113F6C6; 113F6F6
average fluorescence intensity [2]: 405 MFI | average fluorescence intensity [6]: 182 MFI | average fluorescence intensity [7]: 2.7 MFI | average fluorescence intensity [8]: 357 MFI | average fluorescence intensity [9]: 426 MFI | average fluorescence intensity [10]: 13.7 MFI | average fluorescence intensity [11]: 2.9 MFI | average fluorescence intensity [13]: 46.2 MFI | EC50 (read off the curve) [14]: ~0.02 µg/mL

Further lines, results first:

OD450 nm [1]: 1.1 OD450 nm | OD450 nm [3]: 2.78 OD450 nm | OD450 nm [4]: 2.53 OD450 nm | OD450 nm [5]: 2.78 OD450 nm | average fluorescence intensity [6]: 154 MFI | average fluorescence intensity [7]: 4.6 MFI | average fluorescence intensity [8]: 392 MFI | average fluorescence intensity [9]: 595 MFI | average fluorescence intensity [10]: 38.5 MFI | average fluorescence intensity [11]: 3.4 MFI | OD450 nm [12]: 2.77 OD450 nm | average fluorescence intensity [13]: 126 MFI | EC50 (read off the curve) [14]: ~0.02 µg/mL
B2: 23G3B8 (antibody, V domains shown)
VH: QVQLQESGPGLVKPSETLSLTCAVSAYSISSGYYWGWIRQPPGKGLEWIGSIFHSGSNYYNPSLKSRVTISVDPSKNQFSLKLSSVTVADTAVYYCARESSGYNCFDYWGQGTLVTVSS
VL: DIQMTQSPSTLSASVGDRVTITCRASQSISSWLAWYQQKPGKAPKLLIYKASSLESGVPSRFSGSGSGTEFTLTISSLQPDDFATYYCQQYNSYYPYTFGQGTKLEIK

average fluorescence intensity [2]: 538 MFI | average fluorescence intensity [6]: 166 MFI | average fluorescence intensity [7]: 4.9 MFI | average fluorescence intensity [8]: 549 MFI | average fluorescence intensity [9]: 581 MFI | average fluorescence intensity [10]: 42.7 MFI | average fluorescence intensity [11]: 3.3 MFI | average fluorescence intensity [13]: 148 MFI | EC50 (read off the curve) [14]: ~0.02 µg/mL
B3: 57B3D10 (antibody, V domains shown)
VH: QVQLQESGPGLVKPSETLSLTCTVSGGSISSYYWSWIRQPPGKGLEWIGYIYYSGSTNYNPSLKSRVTISVDTSKSQFSLKLTSVTAADTAVYYCAKDSDYYGSGSYSYWYFDLWGRGTLVTVSS
VL: EIVMTQSPATLSVSPGERATLSCRASQSVSSNLAWYQQKPGQAPRLLIYGASTRAPGIPARFSGSGSGTEFTLTISSLQSEDFAVYYCQQYNNWPLTFGGGTKVEIK
notes: also called 4-1BB fully human antibody 57B3D10

OD450 nm [1]: 0.99 OD450 nm | average fluorescence intensity [2]: 527 MFI | OD450 nm [3]: 2.72 OD450 nm | OD450 nm [4]: 2.26 OD450 nm | OD450 nm [5]: 2.73 OD450 nm | average fluorescence intensity [6]: 114 MFI | average fluorescence intensity [7]: 4.4 MFI | average fluorescence intensity [8]: 408 MFI | average fluorescence intensity [9]: 735 MFI | average fluorescence intensity [10]: 34.4 MFI | average fluorescence intensity [11]: 2.9 MFI | OD450 nm [12]: 2.73 OD450 nm | average fluorescence intensity [13]: 125 MFI | EC50 (read off the curve) [14]: ~0.03 µg/mL
B5: 118F3A2 (antibody, V domains shown)
VH: QVQLQQWGAGLLKPSETLSLTCGVYGGSFSTNYWSWIRQSPGKGLEWIGEINHSGNTEYNPSLKSRLTISIDTSKNQFSLKLTSVTAADTAVYYCARMGYHSPSFDFWGQGVLVTVSS
VL: KIVMTQSPATLSVSPGERATLPCRVSQGIGSNLAWYQQKPGQAPRLLIYGASTRATGVPARFSGSGSGSEFTLTISSLQSEDLALYYCQQYNNWPLTFGGGTKVEIK
